The source of these data is publication PMC9433702, “Functional characterization of a catalytically promiscuous tryptophan decarboxylase from camptothecin-producing Camptotheca acuminata” (Frontiers in Plant Science, 2022).

Substrate in the series: N[C@@H](Cc1c[nH]c2ccccc12)C(=O)O
Briefly: HPLC-DAD quantitation of tryptamine, non-linear regression. The settings on record: 4 μM PLP, 0.16 μM enzyme, 50 mM phosphate buffer pH 7.6, 37°C. The format is biochemical, Camptotheca acuminata.

Broadly, the Km is the substrate concentration at which the rate is half of its maximum.

B1: CaTDC3 (Camptotheca acuminata) (protein)
chain: MGSLDSNYDTESPASVGQFNPLDPEEFRKQAHCIVDFIADYYKNIESYPVLSQVDPGYLHSRLPKNAPYRSEPFESILKDVQKDIIPGMTHWMSPNFFAYFPATVSSAAFVGEMLCTCFNSVGFNWLASPAATELEMVVIDWLANMLKLPKSFMFSGTGGGVLQGTTSEAILCTLIAARDRALEIVGVKNFNKLVVYGSDQTHSTYAKACKLAGILPCNIRSIPTTADSNFSVSPLLLRRAIEADKAAGMVPLYICATVGTTSTTAIDPLSSLADVANDYGVWFHVDAAYAGSACICPEFRHYLDGIERADSLSLSPHKWLLSYLDCCCLWVKSPSLLVKALSTDPEYLKNQPSESKSVVDYKDWQVGTGRRFKALRLWFVMRSYGVANLQSHIRTDVQMAKMFEGFVKSDPRFEILVPRVFSLVCFRLNPISGSDPTGTEALNRKLLDWVNSTGRVYMTHTKVGGIYMLRFAVGATLTEKRHVSSAWKLIKEGADVLLKED
notes: homodimer by homology model
On to B1, for which the Km was found to be 48 ± 2 µM and the kcat was 25.6 min^–1.
